Reference: patent US20020123068A1, “Water-soluble, fluorescent, & electrophoretically mobile peptidic substrates for enzymatic reactions and methods for their use in high-throughput screening assays” (priority 2001, published 2002)
Each block holds one compound with its values, some of them ahead of it. Where a SMILES comes first, the peptide text is derived from it. Where no end group is shown, it is not given here. Side-chain parts run from the residue outwards. Texas Red = Texas Red: fluorescent dye

Tests used:
[1] = target: T1, SRC Kinase (Homo sapiens, UniProt P12931); experiment: SRC kinase assay of fluorescent peptidic substrates, agarose gel electrophoresis readout; type: biochemical; details: for substrate of SRC kinase (FIG. 4): peptide 20 μM, 10 units SRC kinase, 1 h at room temperature
Method: An assay of the fluorescent peptidic substrate was performed in the presence of SRC Kinase. The peptide concentration was 10 μM, and the ATP concentration was 100 μM. The reaction proceeded in a buffer comprising 25 mM sodium (N-[2-hydroxyethyl]piperazine-N′-[2-ethanesulfonate]), 20 mM magnesium chloride, pH 7.4 for 90 min at room temperature, and the reaction mixture was submitted to gel electrophoresis in a 0.8% agarose slab at pH 8.0. Nearly 75% conversion of the substrate to product took place, and the substrate and product migrated in opposite directions. The results appear in FIG. 3.
A kinase assay was performed with each of these peptides as substrates. The concentrations of the Ac-C-[S-(BTR-Jeff)]EEFIYGAFKKKK [SEQ. ID NO. 3] and Ac-C-[S-(BTR-Jeff)]EEFIYGAFRRRR [SEQ. ID NO. 4] were 20 μM, respectively. The ATP concentration in each reaction was 100 μM, and 10 units of SRC kinase were added per reaction. The reactions proceeded at room temperature for 1 h. The reaction mixtures were spiked with 50% glycerol to give a final concentration of 10%. The samples (25 μL) were submitted to gel electrophoresis on a 0.8% agarose slab in 50 mM TRIS HCl, pH 8.0.
The SRC substrate Ac-C-[S-(TXR-Jeff)]EEFIYGAFKKKK [SEQ. ID NO. 5] was prepared and assayed as described by the method in Example 5 with the exceptions that TXR-Jeffamine-BAA was used as the fluorophore and the assay was allowed to proceed overnight. The results of the assay appear in FIG. 5. The anode is to the left and the cathode to the right. N-(TXR)-LRRASLG [SEQ. ID NO. 11] (Texas Red labeled Kemptide) and its phosphorylated derivative were included as mobility standards.

[2] = Solubility of peptides and fluorescent peptide conjugates in aqueous buffer; type: physicochemical
[3] = target: T2, protein kinase A (PKA) (Bos taurus, UniProt P00517); experiment: Protein kinase A phosphorylation assay (PepTag assay kit), agarose gel electrophoresis readout; type: biochemical
T2 construct: purchased Promega (Madison, WI)
Method: The fluorescent peptides were assayed with protein kinase A (PKA) using the PepTag assay kit from Promega (Madison, WI). The concentrations of the peptides in the assay were 60 μM, and the concentration of ATP was 1 mM. After completion of the assay the 25 μL reaction mixtures were spiked with 5 μL of 50% glycerol and submitted to gel electrophoresis in a 0.8% horizontal agarose slab in 50 mM TRIS HCl, pH 8.0. The gels were imaged with a fluorescence imager. The results appear in FIG. 1. The Lissamine Kemptide reaction mixtures (− & + kinase) are included as controls. It is clear that both isomers of N-(TXR)LRRASLG [SEQ. ID NO.

[4] = test system: T3, C-[S-(TXR-Jeff)]EEEFIYGAFKKKK
T3 sequence: CEEEFIYGAFKKKK

[5] = test system: T4, conjugate comprising just the BODIPY630/650 and Kemptide
T4 sequence: LRRASLG

[6] = target: T1, SRC Kinase; details: screen done by investigators at Selectide; cited from earlier work

quality/reactivity as substrate for SRC kinase (in words) [1]: good reactivity
Compound: Ac-C-[S-(TXR-Jeff)]EEFIYGAFKKKK: Texas Red-Jeffamine ED-900 conjugate of N-acetylated peptide Ac-CEEFIYGAFKKKK (Example 6) (Ac-C([Jeffamine ED‑900-Texas Red])EEFIYGAFKKKK)

substrate of SRC kinase (FIG. 4) ([1]; ATP 100 μM): is a substrate of SRC kinase
Compound: Ac-C-[S-(BTR-Jeff)]EEFIYGAFKKKK: BODIPY TR-Jeffamine ED-900 conjugate of N-acetylated peptide Ac-CEEFIYGAFKKKK (Ac-C([Jeffamine ED‑900-BODIPY TR])EEFIYGAFKKKK)

solubility [2]: Insolubility
Compound: CC[C@H](C)[C@H](NC(=O)[C@H](Cc1ccccc1)NC(=O)[C@H](C)NC(=O)[C@H](C)NC(=O)[C@@H](N)CS)C(=O)N[C@@H](Cc1ccc(O)cc1)C(=O)NCC(=O)N[C@@H](C)C(=O)N[C@@H](Cc1ccccc1)C(=O)N[C@@H](CCCCN)C(=O)O [CAAFIYGAFK] (H-CAAFIYGAFK-OH; N-terminus and C-terminus assumed)

phosphorylation by Protein Kinase A (Example 3, FIG. 2) [3]: could not phosphorylate
Compound: conjugate comprising just the BODIPY630/650 and Kemptide: BODIPY630/650 coupled to Kemptide LRRASLG without PEG spacer (also: BODIPY630/650 coupled without spacer, site not given here) [reference compound]
solubility [2]: so low

Compound: SRC kinase
Km (kinase assay) [4]: Km=8.5 µM
conversion of the substrate to product (kinase assay, agarose gel electrophoresis) [4]: Nearly 75% conversion of the substrate to product took place

Compound: protein kinase A (PKA)
phosphorylation [5]: its solubility was so low that Protein Kinase A could not phosphorylate it

substrate for PKA (FIG. 1) ([3]; peptide 60 μM, ATP 1 mM): substrates for PKA
Compound: N-(TXR)LRRASLG: Texas Red-X labeled Kemptide prepared for comparison (Example 1) ({Texas Red‑X}-LRRASLG)

quality/reactivity as substrate for SRC kinase (in words) [1]: good substrate
Compound: C-[S-(TXR-Jeff)]EEEFIYGAFKKKK: Texas Red linked through a Jeffamine ED-900 PEG spacer to the cysteine thiol of peptide CEEEFIYGAFKKKK; SRC kinase substrate (C([Jeffamine ED‑900-Texas Red])EEEFIYGAFKKKK)
Km ([1]; fluorescent peptide as substrate for SRC Kinase): 8.5 µM
conversion of the substrate to product ([1]; peptide 10 μM, ATP 100 μM, pH 7.4, 90 min at room temperature): ~75%

Compound: FIYGAFK (Test Substrate Sequence)
active substrate of SRC Kinase in resin-bound peptide library screen [6]: active substrate

phosphorylation by Protein Kinase A (Example 3, FIG. 2) [3]: successfully phosphorylated
Compound: (BODIPY-PEG)-labeled Kemptide: BODIPY630/650 coupled to Kemptide LRRASLG through a 3,400 molecular weight PEG spacer (not fully specified; also: BODIPY630/650 label, attachment site not given here)

substrate of SRC kinase (FIG. 4) ([1]; ATP 100 μM): is not
Compound: Ac-C-[S-(BTR-Jeff)]EEFIYGAFRRRR: BODIPY TR-Jeffamine ED-900 conjugate of N-acetylated peptide Ac-CEEFIYGAFRRRR (Ac-C([Jeffamine ED‑900-BODIPY TR])EEFIYGAFRRRR)
quality/reactivity as substrate for SRC kinase (in words) [1]: did not result in a sufficiently reactive substrate
solubility [2]: much lower
